Patent US20070185028A1, “Compositions and methods for treatment of protein misfolding and protein aggregation diseases” (priority 2004, published 2007)

Experiments:
Aβ = Aβ (Homo sapiens, UniProt P05067); test: Aβ Thioflavin T fluorescence (fibrillization, 50° C., 72 hours); type: biochemical; details: 1:10 Aβ:peptide; for effect on the fibrillization of Aβ (ranking): 72 hrs; for Δfluorescence (Aβ): Thioflavin T, 50° C., 72 hours
Method: Aβ Thioflaviin T fluorescence. Aβ fibrils were grown in the presence and absence of αB crystallin and peptides in conditions similar to that previously described for the presence of αB crystallin. Bakthisaran et al., Biochem J, 2005. Peptides were dissolved to 9.1 mM in trifluorethanol (TFE) and diluted to 0.91 mM stock solutions in 50 mM PBS, 100 mM NaCl, pH 7.4. 3.5 mg of Thioflavin T was dissolved in 100 μl of 50 mM Glycine pH 8.5. A stock solution of 1 mg/ml (0.22 mM) Aβ was prepared. 20 μl Aβ, 50 μl chaperone, 2 μl Thioflavin T was mixed with 28 μl 50 mM PBS, 100 mM NaCl, pH 7.4. Fluorescence was read using a Beckman Coultier DTX 880 multimode detector. Samples were heated at 50° C. for 72 hours and fluorescence was read again.
The fibrillization of Aβ was measured as fluorescence of the fluorescent dye Thioflavin T from solutions containing 1:10 monomeric molar ratio of Aβ:peptide. In the absence of Aβ fibrils, Thioflavin T had little or no fluorescence. The fluorescence of the Thioflavin T bound to Aβ fibrils in the absence of any other molecule after 72 hrs was set to 100%. […] Fibril formation=ΔfluorescenceAβ (with chaperone)*100/ΔfluorescenceAβ (without chaperone).

beta amyloid = beta amyloid (Homo sapiens, UniProt P05067); test: αB crystallin protein pin array, binding of beta amyloid; details: immobilized 8-mer peptide; absorption at 450 nm
Source text: αB Crystallin peptides that bind the target protein beta-amyloid were identified by screening an αB crystallin protein pin array, which provides a systematic method for evaluating interactions between peptides corresponding to residues 1-175 of human αB crystallin and selected target proteins in a parallel and simultaneous manner.
Peptides were synthesized on derivatized polyethylene pins arranged in a microtiter plate format. Each peptide was 8 amino acids in length and consecutive peptides were offset by 2 amino acids. All peptides were covalently bonded to the surface plastic pins. The first immobilized peptide was 1MDIAIHHP8 and the last peptide was 168PAVTAAPK175 for the human αB crystallin.
After synthesis, the pins were pre-coated at room temperature with 2% Bovine Serum Albumin (BSA), 0.1% Tween-20 and 0.1% Sodium azide in 10 mM phosphate buffered saline pH 7.2 (PBS) for 1 hr, and washed three times for 10 mins each with 10 mM PBS. To screen for binding to the peptides, fixed concentrations of the target protein beta amyloid was dissolved in 10 mM PBS, containing 0.05% Tween-20, added to each well and incubated for 1 hr at room temperature. The pin array was washed three times for 10 mins each with 10 mM PBS, containing 0.05% Tween-20. Monoclonal or polyclonal primary antibodies for the target protein beta amyloid was diluted into PBS buffer, added to each well and incubated for 1 hr at room temperature. Subsequently, the pin array was washed three times for 10 mins each with 10 mM PBS containing 0.05% Tween-20. Anti-rabbit horse-radish peroxidase conjugate secondary antibodies was diluted into PBS buffer, added to each well and incubated for 1 hr at room temperature. The pin array was washed three times for 10 mins each with 10 mM PBS containing 0.05% Tween-20. A chromogenic substrate of horse-radish peroxidase 3,3′,5,5′-Tetramethylbenzidine (TMB) (Pharmingen, San Diego, Calif.) which is colorless was added, and the reaction was carried out for 45 min.
The reaction was stopped by adding 6N sulfuric acid, which changes the color from blue to yellow. The absorption at 450 nm was measured by an ELISA reader (BioTek, Winooski, Vt.).
The pin array was regenerated by sonication in a water bath (VWR Aquasonic, West Chester, Pa.) with 100 mM PBS, containing 1% Sodium dodecyl sulfate (SDS) and 0.1% 2-Mercaptoethanol@60° C. for 10 mins. Next, the pin array was rinsed three times in deionized water, preheated to 60° C. for 30 secs each time, and shaken in water preheated at 60° C. for 30 min. The pin array was then washed with methanol at 60° C. for 15 secs and air-dried and stored @−20° C. for future use. Each target protein was assayed 2-5 times against the human αB crystallin protein pin array peptides to verify the reproducibility of the results. Peptides numbered 5, 7, 8, 9, 13, 19, 22, 23, 24, 27, 35, 38, 45, 51, 52, 56, 57, 61, 66, 71, 72, and 79 in Table 2 reproducibly tested positive in the protein pin assay.

Sequence | effect on the fibrillization of Aβ (ranking) (Aβ) | Δfluorescence (Aβ) (Aβ) | binding of beta amyloid in the protein pin assay (beta amyloid)
DRFSVNLDVKHFS | strongest effect | 264,396,672 | 
ERTIPITRE |  | 576,742,720 | 
FSVNLDVK [Peptide 38] |  |  | positive
HGKHEERQDE | weakest effect | 796,478,624 | 
LTITSSLS [Peptide 66] |  |  | positive
LTITSSLSSDGV |  | 352,301,312 | 
STSLSPFYLRPPSFLRAP |  | 478,389,568 | 
WIRRPFFP [Peptide 5] |  |  | positive
